In US9018173B2, “Materials and methods for suppressing inflammatory and neuropathic pain” (Indiana University Research and Technology Corp., priority 2010, dated 2015):
Entries after “also recorded” stand apart in the source; their conditions may differ.

Key:
[1] = target: T1, CRMP-2-CaV2.2 interaction (Rattus norvegicus, UniProt Q02294); test: Immunoprecipitation of CRMP-2/CaV2.2 in the presence of peptides; type: binding; conditions: spinal cord lysates or rat brains; peptides 10 μM
T1 construct: that could be captured from rat brains; from tissue; host or cells: rat brain / spinal cord lysates (CaV2.2)
T1 sequence (Q02294 whole entry): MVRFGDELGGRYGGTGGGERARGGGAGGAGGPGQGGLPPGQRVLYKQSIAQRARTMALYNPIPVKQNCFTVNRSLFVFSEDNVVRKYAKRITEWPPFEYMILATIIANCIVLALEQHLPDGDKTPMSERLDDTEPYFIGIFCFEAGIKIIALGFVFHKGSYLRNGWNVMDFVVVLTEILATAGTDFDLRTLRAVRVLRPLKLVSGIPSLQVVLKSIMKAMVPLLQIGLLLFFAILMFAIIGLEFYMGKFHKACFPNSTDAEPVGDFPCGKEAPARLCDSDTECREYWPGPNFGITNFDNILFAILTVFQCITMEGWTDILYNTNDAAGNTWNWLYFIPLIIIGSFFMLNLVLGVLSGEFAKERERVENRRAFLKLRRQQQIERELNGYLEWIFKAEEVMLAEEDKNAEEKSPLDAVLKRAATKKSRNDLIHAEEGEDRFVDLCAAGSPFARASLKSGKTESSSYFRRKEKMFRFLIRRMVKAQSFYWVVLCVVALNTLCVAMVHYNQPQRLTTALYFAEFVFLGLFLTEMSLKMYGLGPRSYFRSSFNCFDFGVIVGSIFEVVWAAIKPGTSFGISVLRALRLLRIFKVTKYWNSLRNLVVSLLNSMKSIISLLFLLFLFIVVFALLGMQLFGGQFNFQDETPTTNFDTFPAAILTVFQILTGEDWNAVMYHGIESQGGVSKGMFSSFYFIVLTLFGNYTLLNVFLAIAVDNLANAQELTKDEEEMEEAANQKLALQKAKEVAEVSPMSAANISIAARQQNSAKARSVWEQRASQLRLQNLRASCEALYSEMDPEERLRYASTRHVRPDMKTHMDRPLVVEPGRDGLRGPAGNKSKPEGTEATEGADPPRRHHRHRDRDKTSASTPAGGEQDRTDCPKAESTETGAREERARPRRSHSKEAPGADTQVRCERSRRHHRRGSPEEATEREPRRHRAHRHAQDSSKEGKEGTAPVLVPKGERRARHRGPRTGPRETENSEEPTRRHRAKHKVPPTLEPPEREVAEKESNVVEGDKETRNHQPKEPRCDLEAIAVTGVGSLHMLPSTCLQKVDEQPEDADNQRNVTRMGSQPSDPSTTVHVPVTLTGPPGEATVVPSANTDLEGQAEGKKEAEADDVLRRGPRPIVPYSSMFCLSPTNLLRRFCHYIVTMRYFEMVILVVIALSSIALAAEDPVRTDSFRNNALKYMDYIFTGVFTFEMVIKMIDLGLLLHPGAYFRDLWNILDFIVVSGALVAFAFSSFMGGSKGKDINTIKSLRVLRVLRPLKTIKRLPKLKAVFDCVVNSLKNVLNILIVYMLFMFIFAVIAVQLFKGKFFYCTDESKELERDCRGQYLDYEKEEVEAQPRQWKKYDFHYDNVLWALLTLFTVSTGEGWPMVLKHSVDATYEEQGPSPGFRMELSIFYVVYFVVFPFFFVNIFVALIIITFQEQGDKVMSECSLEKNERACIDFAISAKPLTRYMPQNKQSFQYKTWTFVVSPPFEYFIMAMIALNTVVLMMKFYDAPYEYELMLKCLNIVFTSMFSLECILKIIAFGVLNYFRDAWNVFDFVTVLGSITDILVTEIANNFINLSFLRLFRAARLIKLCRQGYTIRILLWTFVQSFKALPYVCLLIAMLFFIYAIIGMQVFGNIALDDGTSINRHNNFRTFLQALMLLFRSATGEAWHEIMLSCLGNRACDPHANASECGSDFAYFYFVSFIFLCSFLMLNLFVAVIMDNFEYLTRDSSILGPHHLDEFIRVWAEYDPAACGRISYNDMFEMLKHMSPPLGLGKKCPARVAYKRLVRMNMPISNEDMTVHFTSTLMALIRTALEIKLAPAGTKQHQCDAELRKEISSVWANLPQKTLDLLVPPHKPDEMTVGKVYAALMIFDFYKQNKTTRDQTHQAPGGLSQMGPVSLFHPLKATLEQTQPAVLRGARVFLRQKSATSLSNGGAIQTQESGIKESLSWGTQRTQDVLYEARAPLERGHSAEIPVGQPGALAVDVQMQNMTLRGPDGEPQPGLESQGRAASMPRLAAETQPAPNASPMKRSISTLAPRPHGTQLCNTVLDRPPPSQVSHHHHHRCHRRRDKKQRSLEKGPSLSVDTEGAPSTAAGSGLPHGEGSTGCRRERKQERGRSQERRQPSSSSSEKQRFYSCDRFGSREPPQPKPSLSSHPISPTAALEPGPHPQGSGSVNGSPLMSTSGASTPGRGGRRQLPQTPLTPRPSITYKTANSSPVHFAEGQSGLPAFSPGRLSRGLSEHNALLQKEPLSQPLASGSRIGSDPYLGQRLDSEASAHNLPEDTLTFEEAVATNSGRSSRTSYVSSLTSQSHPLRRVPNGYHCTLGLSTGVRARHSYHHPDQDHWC
T1 sequence (P54287 whole entry partner): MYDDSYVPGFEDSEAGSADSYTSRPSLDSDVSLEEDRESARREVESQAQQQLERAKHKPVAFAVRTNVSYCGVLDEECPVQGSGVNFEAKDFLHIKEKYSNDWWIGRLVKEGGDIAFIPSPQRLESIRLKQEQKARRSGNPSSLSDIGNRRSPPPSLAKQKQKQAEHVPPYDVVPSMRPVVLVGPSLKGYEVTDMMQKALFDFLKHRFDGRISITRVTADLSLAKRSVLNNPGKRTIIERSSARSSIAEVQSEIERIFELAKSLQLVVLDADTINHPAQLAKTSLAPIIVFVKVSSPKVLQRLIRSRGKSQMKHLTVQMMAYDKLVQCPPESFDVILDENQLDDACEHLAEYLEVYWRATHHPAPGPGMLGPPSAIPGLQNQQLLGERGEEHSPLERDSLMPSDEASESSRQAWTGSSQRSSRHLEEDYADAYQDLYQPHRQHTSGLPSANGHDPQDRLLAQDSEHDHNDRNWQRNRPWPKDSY
Procedure: Referring now to FIG. 18. […] Peptides (10 μM each) were added for 30 min prior to addition of the CRMP-2-His protein. Representative blot from 12 separate experiments is shown. (FIG. 18.B) In vitro binding of L1-GST and Ct-dis-GST fusion proteins to CRMP-2 in the presence of scramble or CBD3 peptides (10 μM). The purification of the L1 and Ct-dis regions of CaV2.2 has been described by us previously. CRMP-2 bound to L1 and Ct-dis was probed with a CRMP-2 antibody. Representative blot from 4 separate experiments are shown. Similar results were obtained in experiments with spinal cord lysates (FIGS. 18.B and 18D).
Immunoblotting. This was performed as described previously. Rat brain synaptosomes were pre-cleared by a 1-h incubation with 20 μl of a 50% slurry of protein A/G beads (Pierce). The cleared lysate was then incubated overnight with various primary antibodies or rabbit or mouse isotype-specific IgGs (Sigma) as controls. The antibody-captured complexes were recovered with fresh protein A-agarose (for rabbit polyclonal antibodies) or protein A/G-agarose (for mouse monoclonal antibodies) beads (20 μl of original bead slurry/sample) by incubation with lysate/antibody mixture at 4° C. for 2 h. The beads were then washed three times with lysis buffer. Prior to electrophoresis on SDS-polyacrylamide gels, protein samples were boiled in Laemmli sample buffer for 5 min. […]

[2] = tested on: CaV2.2 surface expression in CAD cells; test: CaV2.2 surface expression in CAD cells (immunocytochemistry, surface biotinylation); type: cell-based
Procedure: Catecholamine A Differentiated (CAD) cells. CAD cells were grown at 37° C. and in 5% CO2 (Sarstedt, Newton, N.C.) in Ham's F12/EMEM medium (GIBCO, Grand Island, N.Y.), supplemented with 8% fetal bovine serum (FBS; Sigma, St. Louis, Mo.) and 1% penicillin/streptomycin ([…], 10,000 U/ml penicillin G sodium and 10,000 μg/ml streptomycin sulfate). Cells were passaged every 6-7 days at a 1:25 dilution.
Transient transfection. Adherent cultures were transfected with cDNAs using Lipofectamine 2000 (Invitrogen) as described previously. About 2-3% transfection efficiencies in hippocampal neurons was achieved routinely, 35-40% in DRG, and 75-80% in CAD cells transfected with this method. Typically, cultured cells were transfected with equal amounts of different cDNA constructs and experiments performed two days later.
Cell Surface Biotinylation. Biotinylation was performed as described. […]
Immunocytochemistry. […] Images were acquired on a Nikon Ti swept-field confocal microscope using a 60×, 1.4 NA lens and standard FITC/Texas red fluorescence cubes with a cooled Cascade 512B digital camera (Photometrics, Tucson, Ariz.). […]

[3] = target: T2, interaction between tubulin and CRMP-2 (Rattus norvegicus, UniProt P47942); test: Immunoprecipitation of CRMP-2/tubulin in the presence of peptides; type: binding; conditions: spinal cord lysates
T2 construct: from tissue; host or cells: rat brain / spinal cord lysates (tubulin)

With ARSRLAELRGVPRGL (CBD3) the “CRMP-2-CaV2.2 interaction (immunoprecipitation)” value [1] was “inhibited; also recorded: inhibits the binding between CRMP-2 and CaV2.2”, the “CaV2.2 localisation on co-expression” value ([2]; co-expression of CaV2.2 with CBD3 in CAD cells) was “almost complete retention of the channel in cytoplasmic aggregates” and the “surface expression of co-expressed CaV2.2 (surface biotinylation)” value ([2]; expressed in CAD cells) was “prevented surface expression”. For the same sequence, the “interaction between tubulin and CRMP-2 (immunoprecipitation)” value [3] was “did not affect”.
